Target: T1, Cobrotoxin (N. Atra, Miami Serpentarium) (Naja atra, UniProt P60770 22-83)
T1 sequence: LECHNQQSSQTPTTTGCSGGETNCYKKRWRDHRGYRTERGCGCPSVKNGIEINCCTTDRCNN
Experiment: panning, phage ELISA and purified-VHH ELISA on coated toxin

B1: Anti-cobrotoxin VHH (B9) (VHH)
VHH: QVQLQESGGGLAQAGGSLRLSCSASRNIFRVYGWYRQAPGKQREWVASITRDDSTAYADSVKGRFTISRDSAKNTMYLQMSSLRLEDTSTYYCAAQSISGTIQWGQGTQVTVSS
notes: also called VHH candidate against cobrotoxin
  binding result: binds

Source: patent publication US20200157197A1 (VENOMYX, published 2020)
